Source: the supplement of paper PMC7877785
± gives the uncertainty stated by the source.

Assay: self-splicing fitness, log relative to wild type (ln ratio); higher = more splicing; Tetrahymena group I intron in knt gene, E. coli kanamycin selection, DiMSum; sequences stand for … in CUCUCU…GGAGGGAAAAGUUAUCAGGCAUGCACCUGGUAGCUAGUCUUUAAACCAAUAGAUUGCAUCGGUUUAAAAGGCAAGACCGUCAAAUUGCGGGAAAGGGGUCAACAGCCGUUCAGUACCAAGUCUCAGGGGAAACUUUGAGAUGGCCUUGCAAAGGGUAUGGUAAUAAGCUGACGGACAUGGUCCUAACCACGCAGCCAAGUCCUAAGUCAACAGAUCUUCUGUUGAUAUGGAUGCAGUUCACAGACUAAAUGUCGGUCGGGGAAGAUGUAUUCUUCUCAUAAGAUAUAGUCGGACCUCUCCUUAAUGGGAGCUAGCGGAUGAAGUGAUGCAACACUGGAGCCGCUGGGAACUAAUUUGUAUGCGAAAGUAUAUUGAUUAGUUUUGGAGUACUCGUGGUCG
Method in brief: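 DiMSum derived fitness as the error-weighted combination of fold changes across replicates, kanamycin versus no kanamycin, normalised to wild type. E. coli BL21(DE3) held the library, which randomised all eight P1ex-region intron nucleotides within the knt kanamycin-resistance gene on pET-22b(+). Six replicate transformations grew overnight at 37°C or 30°C on LB agar with or without 25 μg/mL kanamycin, also containing 100 μg/mL carbenicillin, 50 μM IPTG and 0.2% rhamnose, and pooled colonies were amplicon-sequenced on an Illumina HiSeq 2500.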

Sequence | self-splicing fitness (ln) (30 °C) | self-splicing fitness (ln) (37 °C)
CCACAGCAAUAUUACGGUGA | -0.943 ± 0.06 | -0.339 ± 0.062
UCACAGCAAUAUUACGAAAC | -3.36 ± 0.37 | -2.7 ± 0.25
GGUCAGCAAUAUUACGCAUU | 0.00502 ± 0.059 | 0.0322 ± 0.069
GCAUAGCAAUAUUACGUCUU | -1.46 ± 0.1 | -0.342 ± 0.11
ACGCAGCAAUAUUACGAACG | -0.387 ± 0.076 | -0.234 ± 0.091
GGCGAGCAAUAUUACGGAGA |  | -1.69 ± 0.39
AGCUAGCAAUAUUACGUGAG | -2.57 ± 0.12 | -2.28 ± 0.16
GACAAGCAAUAUUACGCUCA | -0.336 ± 0.056 | 0.274 ± 0.073
CGACAGCAAUAUUACGCUGG | -3.13 ± 0.18 | -2.1 ± 0.17
CAACAGCAAUAUUACGACGA | -0.955 ± 0.075 | 0.0703 ± 0.084
GUGCAGCAAUAUUACGUGAU | -1.98 ± 0.078 | -0.862 ± 0.086
AUAUAGCAAUAUUACGCUCG | -0.992 ± 0.12 | 0.0571 ± 0.18
GGCAAGCAAUAUUACGCUCA | -1.21 ± 0.13 | 0.321 ± 0.17
GGAGAGCAAUAUUACGCUCA | -2.77 ± 0.27 | -0.851 ± 0.26
CCAUAGCAAUAUUACGUGGA | -2.2 ± 0.14 | -2.16 ± 0.18
CGUCAGCAAUAUUACGAGAA | -2.97 ± 0.38 | -2.09 ± 0.29
UCGUAGCAAUAUUACGUGUG | -2.3 ± 0.1 | -1.41 ± 0.089
CGCCAGCAAUAUUACGAUUC | -4.81 ± 0.46 | -3.22 ± 0.35
GAUUAGCAAUAUUACGGUAC | -2.14 ± 0.37 | -0.994 ± 0.22
CCCAAGCAAUAUUACGCUAA | -3.05 ± 0.29 | -1.23 ± 0.21
UGAAAGCAAUAUUACGAGUC | -3.42 ± 0.28 | -2.28 ± 0.26
AAACAGCAAUAUUACGUGCG | -1.52 ± 0.053 | -0.389 ± 0.065
CUUGAGCAAUAUUACGUAGA | -3.54 ± 0.21 | -3.91 ± 0.39
GACUAGCAAUAUUACGCCCU | -9.77e-06 ± 0.2 | -0.315 ± 0.21

Sequence | self-splicing fitness (ln) (30 °C) | self-splicing fitness (ln) (37 °C)
CGGAAGCAAUAUUACGUACA | -0.615 ± 0.13 | -0.219 ± 0.15
AAGAAGCAAUAUUACGCCCU | 0.319 ± 0.11 | 0.0852 ± 0.12
AAGUAGCAAUAUUACGGUUU | -0.353 ± 0.064 | -0.458 ± 0.098
GAUAAGCAAUAUUACGAGUG | -1.04 ± 0.074 | -0.835 ± 0.066
GACGAGCAAUAUUACGUAAC | -3.16 ± 0.23 | -0.414 ± 0.18
CCAUAGCAAUAUUACGCAGA | -2.96 ± 0.21 | -2.16 ± 0.24
UUAGAGCAAUAUUACGAGGA | -2.99 ± 0.34 | -0.578 ± 0.32
GGCGAGCAAUAUUACGCGCA | -0.241 ± 0.17 | 0.253 ± 0.22
UCGAAGCAAUAUUACGAAAU |  | -2.56 ± 0.41
UGACAGCAAUAUUACGGCGA | -0.625 ± 0.085 | -0.382 ± 0.092
UCUCAGCAAUAUUACGAGCC | -1.14 ± 0.19 | -1.68 ± 0.41
ACAUAGCAAUAUUACGCGCU | -1.19 ± 0.095 | -0.534 ± 0.098
AGGUAGCAAUAUUACGUUAC | -3.617 ± 0.033 | -2.85 ± 0.048
GUAGAGCAAUAUUACGACAC | -0.732 ± 0.15 | 0.357 ± 0.2
ACUAAGCAAUAUUACGGUUC | -3.92 ± 0.2 | -1.42 ± 0.13
CAUAAGCAAUAUUACGGAUU | -3.15 ± 0.19 | -2.25 ± 0.23
UACUAGCAAUAUUACGAGUU | -2.16 ± 0.11 | -0.685 ± 0.1
GUGAAGCAAUAUUACGGGGC | -2.91 ± 0.23 | -3.35 ± 0.35
UAUAAGCAAUAUUACGCGUG | -1 ± 0.057 | -0.488 ± 0.075
AGUUAGCAAUAUUACGGCGU | -0.00974 ± 0.12 | 0.274 ± 0.12
CACGAGCAAUAUUACGCCGG | -3.41 ± 0.22 | -2.6 ± 0.3
AAAGAGCAAUAUUACGGUCA | -1.91 ± 0.21 | -1.3 ± 0.17
CGUGAGCAAUAUUACGCGAC | -2.65 ± 0.35 | -2.21 ± 0.36
ACCCAGCAAUAUUACGUCGU | -0.24 ± 0.039 | -0.318 ± 0.051

Sequence | self-splicing fitness (ln) (30 °C) | self-splicing fitness (ln) (37 °C)
CGUUAGCAAUAUUACGGUAU | -3.23 ± 0.22 | -2.2 ± 0.22
GGUCAGCAAUAUUACGGUGC | -0.28 ± 0.075 | 0.535 ± 0.11
CAACAGCAAUAUUACGGAUG | -2.53 ± 0.074 | -0.732 ± 0.068
CCGAAGCAAUAUUACGAAUA | -2.66 ± 0.24 | -2.49 ± 0.21
CACAAGCAAUAUUACGUUGU | -3.81 ± 0.16 | -2.39 ± 0.13
CAGCAGCAAUAUUACGGUGU | -3.61 ± 0.15 | -2.72 ± 0.17
GACCAGCAAUAUUACGUGUU | -3.73 ± 0.096 | -2.44 ± 0.11
CACGAGCAAUAUUACGUGUU | -2.98 ± 0.1 | -2.26 ± 0.15
UGAAAGCAAUAUUACGGUAG | -0.656 ± 0.06 | -0.113 ± 0.088
CUCGAGCAAUAUUACGUCGA | -3.29 ± 0.28 | -1.67 ± 0.24
CAGUAGCAAUAUUACGCAUU | -1.49 ± 0.18 | -2.5 ± 0.22
CCAAAGCAAUAUUACGAGAC | -3.26 ± 0.24 | -2.31 ± 0.23
UCGCAGCAAUAUUACGCACA | -0.0778 ± 0.1 | -0.131 ± 0.13
UAAUAGCAAUAUUACGUAGG | -2.37 ± 0.13 | -1.06 ± 0.14
GGCCAGCAAUAUUACGCUAU | -1.35 ± 0.054 | -1.02 ± 0.063
UGGCAGCAAUAUUACGGUUU | -0.212 ± 0.061 | -0.422 ± 0.078
CUAUAGCAAUAUUACGCCAU | -2.66 ± 0.39 | -2.45 ± 0.37
GAACAGCAAUAUUACGGUAA | -1.2 ± 0.059 | -0.286 ± 0.064
UUGUAGCAAUAUUACGAUUG | -2.16 ± 0.15 | -1.42 ± 0.2
AAUUAGCAAUAUUACGACCA | -0.406 ± 0.1 | 0.48 ± 0.12
AGCUAGCAAUAUUACGGCUC | -3.32 ± 0.37 | -3.06 ± 0.43
CGAGAGCAAUAUUACGCGAA | -2.39 ± 0.27 | -1.89 ± 0.37
CGGUAGCAAUAUUACGCUAA | -2.88 ± 0.28 | -1.85 ± 0.18
AUGUAGCAAUAUUACGCCUG | -1.33 ± 0.23 | -0.722 ± 0.21

Sequence | self-splicing fitness (ln) (30 °C) | self-splicing fitness (ln) (37 °C)
GAAGAGCAAUAUUACGCCCU | -2.24 ± 0.22 | -1.38 ± 0.31
AGAUAGCAAUAUUACGGCGA | -0.537 ± 0.14 | -0.0635 ± 0.14
GUAUAGCAAUAUUACGUAAU | -2.43 ± 0.14 | -0.699 ± 0.14
GCAUAGCAAUAUUACGCUGC | -3.08 ± 0.44 | -2.11 ± 0.37
GGAUAGCAAUAUUACGCAGC | -3.14 ± 0.25 | -1.59 ± 0.2
GGCGAGCAAUAUUACGUGAA | -2.49 ± 0.12 | -0.0823 ± 0.13
GCGUAGCAAUAUUACGUGUA | -3.63 ± 0.21 | -2.43 ± 0.12
GUCAAGCAAUAUUACGUCGU | -1.68 ± 0.066 | -0.826 ± 0.078
CCAGAGCAAUAUUACGAUGA | -1.88 ± 0.14 | -0.518 ± 0.11
GGAUAGCAAUAUUACGGCUA | -0.0854 ± 0.16 | -0.532 ± 0.14
UGCGAGCAAUAUUACGCAGU |  | -4.06 ± 0.39
ACCUAGCAAUAUUACGCGCG | -0.971 ± 0.13 | 0.377 ± 0.13
GCUAAGCAAUAUUACGACAG | -2.67 ± 0.17 | -2.51 ± 0.32
CAACAGCAAUAUUACGCGUU | -3.77 ± 0.14 | -1.62 ± 0.08
UUCAAGCAAUAUUACGCCUA | 0.0224 ± 0.061 | 0.182 ± 0.077
GCUGAGCAAUAUUACGAGUU | -2.73 ± 0.13 | -0.949 ± 0.12
UAUUAGCAAUAUUACGGCCU | -0.879 ± 0.21 | -0.611 ± 0.27
UUGCAGCAAUAUUACGUCGU | -1.8 ± 0.16 | -1.17 ± 0.2
AGGCAGCAAUAUUACGAGGU | -2.14 ± 0.15 | -2.68 ± 0.26
UGCUAGCAAUAUUACGUGGU | -3.36 ± 0.22 | -2.13 ± 0.24
CGCCAGCAAUAUUACGCGUA | -2.72 ± 0.18 | -2.31 ± 0.18
CAGAAGCAAUAUUACGCUAA | -4.46 ± 0.42 | -1.97 ± 0.26
UAAAAGCAAUAUUACGUAGG | -2 ± 0.083 | -1.22 ± 0.11
GUCGAGCAAUAUUACGUAUA | -3.54 ± 0.25 | -1.63 ± 0.18
